Each block holds one binder with its values, some of them ahead of it.
B3: GvpN fused to NGFP or CGFP (natural protein, Halobacterium salinarum, UniProt Q9HI16 1-347, looked up)
chain: MTNESRKRKVRGSQIRSSRGDKKQGRSQSRDDKEIERLERQNDARGQESSTHVDEGFVPEEQSFIETESVNRVESRMERWLDVGRPVHLIGPTGCGKTSLAMHVARERDRPVVWINGDAELTTSDLVGEYAEKERISEHDQFIHNVVKSKDIIRDRWVDNPLTLAVQEGATLVYNEFSRTKPVANNVLLSVFEEGVLELPGKRGKSRYVDVHPEFRTILTSNSVEYAGVHEPQDALLDRLIGIYMDFYDLDTEIEIVRAHVDKSADTNVEDIVRVLRELRERLDITVGTRAAIMANEGATTVDTVDQAVLTDICTDVLASKVAQRSDVRGLREEIESAIDDMEVALS
notes: GvpN of the p-vac region of Halobacterium salinarum; gvpN amplified from the p-vac region; GFP fragment at the N- or C-terminus, 14 or 16 aa linker; source: Hfx. volcanii WR340 transformant, split-GFP fusion in living cells
B8: GvpA fragment A1-43 (domain or fragment, Halobacterium salinarum, UniProt P08958 1-43, looked up)
chain: MAQPDSSGLAEVLDRVLDKGVVVDVWARVSLVGIEILTVEARV
notes: GvpA of Halobacterium salinarum, alpha1-beta1-beta2; vector described in earlier work; source: Hfx. volcanii WR340 transformant, split-GFP fusion in living cells
B9: GvpC C-terminal fragment Cterm (domain or fragment, Halobacterium salinarum, UniProt P24574 329-382, looked up)
chain: ETEEEAPEDMVQCRVCGEYYQAITEPHLQTHDMTIQEYRDEYGEDVPLRPDDKT
notes: GvpC of Halobacterium salinarum, aa 329-382, the globular C-terminal domain with a zinc-finger motif; GFP fragment at the N- or C-terminus; source: Hfx. volcanii WR340 transformant, split-GFP fusion in living cells
B10: GvpC fused to NGFP or CGFP (natural protein, Halobacterium salinarum, UniProt P24574 1-382, looked up)
chain: MSVTDKRDEMSTARDKFAESQQEFESYADEFAADITAKQDDVSDLVDAITDFQAEMTNTTDAFHTYGDEFAAEVDHLRADIDAQRDVIREMQDAFEAYADIFATDIADKQDIGNLLAAIEALRTEMNSTHGAFEAYADDFAADVAALRDISDLVAAIDDFQEEFIAVQDAFDNYAGDFDAEIDQLHAAIADQHDSFDATADAFAEYRDEFYRIEVEALLEAINDFQQDIGDFRAEFETTEDAFVAFARDFYGHEITAEEGAAEAEAEPVEADADVEAEAEVSPDEAGGESAGTEEEETEPAEVETAAPEVEGSPADTADEAEDTEAEEETEEEAPEDMVQCRVCGEYYQAITEPHLQTHDMTIQEYRDEYGEDVPLRPDDKT
notes: GvpC of the p-vac region of Halobacterium salinarum; gvpC amplified from the p-vac region; GFP fragment at the N- or C-terminus, 14 or 16 aa linker; source: Hfx. volcanii WR340 transformant, split-GFP fusion in living cells
B11: GvpA fragment A20-47 (domain or fragment, Halobacterium salinarum, UniProt P08958 20-47, looked up)
chain: GVVVDVWARVSLVGIEILTVEARVVAAS
notes: GvpA of Halobacterium salinarum, the two beta-sheets beta1-beta2; vector described in earlier work; source: Hfx. volcanii WR340 transformant, split-GFP fusion in living cells

Columns and labels:
Test in all cases: split reporter (BiFC, NanoBiT); split-GFP (NGFP and CGFP of salt-stable mGFP2) in Hfx. volcanii transformants, 24 h 37 °C then 24 h 30 °C; relative fluorescence (rf) against the wild type; the highest of eight tag combinations is given
GvpA fragment A44-76 = biological target: T1, GvpA fragment A44-76 (Halobacterium salinarum, UniProt P08958 44-76); conditions: partners not purified
T1 construct: GvpA of Halobacterium salinarum, mainly helix alpha3; vector described in earlier work; source: Hfx. volcanii WR340 transformant, split-GFP fusion in living cells
T1 chain (looked up): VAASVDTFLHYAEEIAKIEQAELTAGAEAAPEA

GvpA fragment A1-43 = biological target: B8; conditions: partners not purified
GvpA fragment A20-47 = biological target: B11; conditions: partners not purified
[1] = biological target: B3; conditions: partners not purified
[2] = biological target: B9; conditions: partners not purified
[3] = biological target: B10; conditions: partners not purified
[4] = biological target: the molecule itself
[5] = biological target: T2, GvpA fused to NGFP or CGFP (Halobacterium salinarum, UniProt P08958 1-76); conditions: partners not purified
T2 construct: the entire GvpA of the p-vac region of Halobacterium salinarum; gvpA reading frame; NGFP (mGFP2 up to aa 157) or CGFP (from aa 158) at the N- or C-terminus through a 14 aa (pJAS) or 16 aa (pWLfdx) linker; with GvpF and its variants CGFP stood at the C-terminus of GvpA (AC); also called NA; AN; source: Hfx. volcanii WR340 transformant, split-GFP fusion in living cells
T2 sequence (looked up): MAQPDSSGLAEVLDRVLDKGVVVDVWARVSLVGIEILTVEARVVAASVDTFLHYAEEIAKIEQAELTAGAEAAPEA

- relative fluorescence (rf) [1]: 16.9 LAU/mm^2
- relative fluorescence (rf) [2]: > 18 LAU/mm^2
- relative fluorescence (rf) [3]: 28.6 LAU/mm^2
B2: GvpL fused to NGFP or CGFP (natural protein, Halobacterium salinarum, UniProt Q9HI27 1-281, looked up)
chain: MTDHRPSPEEEQTTANEERTVSNGRYLYCVVDTTSSESATLSTTGVDDNPVYVVEADGVGAVVHDCETVYETEDLEQVKRWLVTHQQVVDAASDAFGTPLPMRFDTVLEGGDASIERWLEDHYEGFRDELASFAGVWEYRINLLWDSAPFEETIADRDDRLRELRQRQQQSGAGKKFLLEKQSDQRLQELKRERRTELADQLKEAITPVVNDLTEQDTNTPLQDEHSSIEKEQIVRFAVLADEDDETALGDRLDTIVEHEGVEIRFTGPWPPYTFAPDIGK
notes: accessory gas vesicle protein GvpL of Halobacterium salinarum; construct of earlier work; source: Hfx. volcanii WR340 transformant, split-GFP fusion in living cells

- relative fluorescence (rf) [1]: < 5 LAU/mm^2
- relative fluorescence (rf) [2]: > 18 LAU/mm^2
- relative fluorescence (rf) [3]: > 7.5 LAU/mm^2
B5: GvpI fused to NGFP or CGFP (natural protein, Halobacterium salinarum, UniProt Q9HI24 1-144, looked up)
chain: MSDKQQQKHKQKARQARVKAQINRDKARRNLLRQREKLARRRTRNRKQSEPRRDDSDGDDTDGETVKNPAAHSTMPPQKSNAENAVRNSHSTVPKTPKYSDVTARERLYGQRLHQKTAGGNSEASAPSDESASGSPTEDEVNDE
notes: accessory gas vesicle protein GvpI of Halobacterium salinarum; construct of earlier work; source: Hfx. volcanii WR340 transformant, split-GFP fusion in living cells

- relative fluorescence (rf) [1]: < 5 LAU/mm^2
B6: GvpK fused to NGFP or CGFP (natural protein)
chain: not shown
notes: accessory gas vesicle protein GvpK of Halobacterium salinarum; construct of earlier work; source: Hfx. volcanii WR340 transformant, split-GFP fusion in living cells

- relative fluorescence (rf) [1]: < 5 LAU/mm^2
B7: GvpM fused to NGFP or CGFP (natural protein, Halobacterium salinarum, UniProt P24377 1-84, looked up)
chain: MEPTKDETHAIVEFVDVLLRDGAVIQADVIVTVADIPLIGISLRAAIAGMTTMTEYGLFEEWDAAHRQQSEAFTTSPTADRRED
notes: accessory gas vesicle protein GvpM of Halobacterium salinarum; construct of earlier work; source: Hfx. volcanii WR340 transformant, split-GFP fusion in living cells

- relative fluorescence (rf) [1]: < 5 LAU/mm^2
B14: GvpJ fused to NGFP or CGFP (natural protein, Halobacterium salinarum, UniProt P24374 1-114, looked up)
chain: MSDPKPTRSQGDLAEMLEMLLDKGVVVNADIAVSVGDTELLGIELRAAIASFETAAEYGLEFPTGTDMERVESAANISPDQSDPASETQSETESTNPLSDDSTPTASTSAEETK
notes: accessory gas vesicle protein GvpJ of Halobacterium salinarum; construct of earlier work; source: Hfx. volcanii WR340 transformant, split-GFP fusion in living cells

More lines, now with the values behind:

B1: GvpA fragment A1-34 (domain or fragment, Halobacterium salinarum, UniProt P08958 1-34, looked up)
chain: MAQPDSSGLAEVLDRVLDKGVVVDVWARVSLVGI
notes: GvpA of Halobacterium salinarum, alpha1 plus beta-sheet 1; vector described in earlier work; source: Hfx. volcanii WR340 transformant, split-GFP fusion in living cells
- relative fluorescence (rf) (GvpA fragment A44-76): ≤ 0.48 LAU/mm^2
- relative fluorescence (rf) (GvpA fragment A1-43): ≤ 0.48 LAU/mm^2
- relative fluorescence (rf) (GvpA fragment A20-47): ≤ 0.48 LAU/mm^2

Binder: B3
- relative fluorescence (rf) [4]: > 10 LAU/mm^2

B4: GvpH fused to NGFP or CGFP (natural protein, Halobacterium salinarum, UniProt P24372 1-182, looked up)
chain: MVPDENDDASDDQSSQLSGLLDQLHTLVEVLADIEEEGGHRHESGRIDRGNARIDYDYDVSIGLGRADGSSYDEEPSSNRSRSEQRSGQQRTTEDSIHVETRGGTSGDELVVVADLPGVTDDDVDVALDTDEQALTLRVDDDVVERVVLDRPDVAITDMTLRNQVLEIRLARTSDTDGGEST
notes: accessory gas vesicle protein GvpH of Halobacterium salinarum; construct of earlier work; source: Hfx. volcanii WR340 transformant, split-GFP fusion in living cells
- relative fluorescence (rf) [1]: < 5 LAU/mm^2
- relative fluorescence (rf) [2]: 42.6 LAU/mm^2
- relative fluorescence (rf) [3]: > 7.5 LAU/mm^2

Binder: B8
- relative fluorescence (rf) (GvpA fragment A44-76): ≤ 0.48 LAU/mm^2
- relative fluorescence (rf) (GvpA fragment A20-47): ≤ 0.48 LAU/mm^2

Binder: B9
- relative fluorescence (rf) [4]: 20.7 LAU/mm^2
- relative fluorescence (rf) [5]: < 2.5 LAU/mm^2

Binder: B10
- relative fluorescence (rf) [4]: 14.5 LAU/mm^2

Binder: B11
- relative fluorescence (rf) (GvpA fragment A44-76): ≤ 0.48 LAU/mm^2

B12: GvpF fused to NGFP or CGFP (natural protein, Halobacterium salinarum, UniProt Q9HI21 1-213, looked up)
chain: MTENLYTYGIIEQEDLELDVEGVAGAEQVYTVDYKTLSAVVSDIDTTDPERTDEDVEAHNNVLQEVLKHEEERTVVPMSFGMAFKSARTLKGVLRGARRALRSTLNDIEGTVELGVKILGPGDDTVPREEIQENVTDQLADLSINETENDLFTDRLIINKSYLVDFEKRDAFDSAIDDVEAEYDELTIQYTGPWPPYNFVDIHIGAEQQQGGR
notes: GvpF (wild type) of the p-vac region of Halobacterium salinarum; R213 is the very last aa; parent of the GvpF variants; also called Fwt; WT; source: Hfx. volcanii WR340 transformant, split-GFP fusion in living cells
- relative fluorescence (rf) [1]: < 5 LAU/mm^2
- relative fluorescence (rf) [2]: > 18 LAU/mm^2
- relative fluorescence (rf) [5]: 18 LAU/mm^2
- relative fluorescence (rf) [3]: > 7.5 LAU/mm^2

B13: GvpG fused to NGFP or CGFP (natural protein, Halobacterium salinarum, UniProt P24371 1-83, looked up)
chain: MFIIDDLFVSPFFSLLDILQTMALDEMYDTKSIRDDIKENQLLYEVGERSDEEYQQRKQALESQLEMAEQVQEQMRDRMEVKK
notes: accessory gas vesicle protein GvpG of Halobacterium salinarum; construct of earlier work; source: Hfx. volcanii WR340 transformant, split-GFP fusion in living cells
- relative fluorescence (rf) [1]: < 5 LAU/mm^2
